Experimental data: patent US20110014193A1 (JURIDICAL FDN THE CHEMO SERO THERAPEUTIC RES INST, published 2011)
Numbering of substitutions follows the chain as printed. In names and notes the source's numbering stands. Like-named read-outs stand apart in the source and are kept apart here. Blank lines part the entries; values can stand above or below the binder they belong to.

Legend:
Assay in all cases: cell-based or functional assay
[1] = target: T1, human α9 integrin molecule (human, UniProt Q13797 30-1035; P05556 21-798)
[2] = target: T1, human α9 integrin molecule; remark: listed apart in the source
[3] = target: T1, human α9 integrin molecule; remark: listed apart in the source
[4] = target: T1, human α9 integrin molecule; remark: listed apart in the source
[5] = target: T1, human α9 integrin molecule; remark: listed apart in the source
[6] = target: T1, human α9 integrin molecule; remark: listed apart in the source
[7] = target: T1, human α9 integrin molecule; remark: listed apart in the source
[8] = target: T1, human α9 integrin molecule; remark: listed apart in the source
[9] = target: T1, human α9 integrin molecule; remark: listed apart in the source

T1 sequence (Q13797 30-1035 limits assumed, chain 1 of 2): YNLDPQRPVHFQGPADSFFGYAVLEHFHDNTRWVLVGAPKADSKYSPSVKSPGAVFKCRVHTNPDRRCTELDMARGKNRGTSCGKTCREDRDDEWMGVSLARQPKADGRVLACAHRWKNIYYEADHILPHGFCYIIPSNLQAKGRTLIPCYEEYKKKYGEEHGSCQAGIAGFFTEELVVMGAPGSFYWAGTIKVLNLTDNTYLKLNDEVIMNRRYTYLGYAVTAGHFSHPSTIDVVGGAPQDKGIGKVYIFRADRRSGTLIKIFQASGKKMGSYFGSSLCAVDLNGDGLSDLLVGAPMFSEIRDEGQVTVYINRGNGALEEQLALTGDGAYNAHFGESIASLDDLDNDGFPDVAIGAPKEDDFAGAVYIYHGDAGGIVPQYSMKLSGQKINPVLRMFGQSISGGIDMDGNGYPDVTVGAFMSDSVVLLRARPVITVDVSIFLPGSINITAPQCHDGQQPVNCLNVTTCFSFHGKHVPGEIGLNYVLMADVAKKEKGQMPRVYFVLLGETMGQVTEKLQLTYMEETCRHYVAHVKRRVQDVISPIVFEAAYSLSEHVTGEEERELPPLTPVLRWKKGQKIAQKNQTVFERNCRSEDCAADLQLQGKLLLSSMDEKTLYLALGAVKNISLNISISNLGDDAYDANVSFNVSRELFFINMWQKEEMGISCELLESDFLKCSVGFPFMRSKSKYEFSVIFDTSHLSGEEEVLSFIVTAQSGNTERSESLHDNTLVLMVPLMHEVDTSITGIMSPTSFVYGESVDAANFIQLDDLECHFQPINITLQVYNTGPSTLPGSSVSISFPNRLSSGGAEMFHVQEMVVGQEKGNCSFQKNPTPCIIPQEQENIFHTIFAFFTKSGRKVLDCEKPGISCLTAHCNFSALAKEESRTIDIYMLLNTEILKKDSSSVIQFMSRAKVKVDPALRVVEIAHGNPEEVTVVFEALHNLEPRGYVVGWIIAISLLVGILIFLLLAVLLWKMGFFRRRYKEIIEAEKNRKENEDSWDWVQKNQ
T1 sequence (P05556 21-798 limits assumed, chain 2 of 2): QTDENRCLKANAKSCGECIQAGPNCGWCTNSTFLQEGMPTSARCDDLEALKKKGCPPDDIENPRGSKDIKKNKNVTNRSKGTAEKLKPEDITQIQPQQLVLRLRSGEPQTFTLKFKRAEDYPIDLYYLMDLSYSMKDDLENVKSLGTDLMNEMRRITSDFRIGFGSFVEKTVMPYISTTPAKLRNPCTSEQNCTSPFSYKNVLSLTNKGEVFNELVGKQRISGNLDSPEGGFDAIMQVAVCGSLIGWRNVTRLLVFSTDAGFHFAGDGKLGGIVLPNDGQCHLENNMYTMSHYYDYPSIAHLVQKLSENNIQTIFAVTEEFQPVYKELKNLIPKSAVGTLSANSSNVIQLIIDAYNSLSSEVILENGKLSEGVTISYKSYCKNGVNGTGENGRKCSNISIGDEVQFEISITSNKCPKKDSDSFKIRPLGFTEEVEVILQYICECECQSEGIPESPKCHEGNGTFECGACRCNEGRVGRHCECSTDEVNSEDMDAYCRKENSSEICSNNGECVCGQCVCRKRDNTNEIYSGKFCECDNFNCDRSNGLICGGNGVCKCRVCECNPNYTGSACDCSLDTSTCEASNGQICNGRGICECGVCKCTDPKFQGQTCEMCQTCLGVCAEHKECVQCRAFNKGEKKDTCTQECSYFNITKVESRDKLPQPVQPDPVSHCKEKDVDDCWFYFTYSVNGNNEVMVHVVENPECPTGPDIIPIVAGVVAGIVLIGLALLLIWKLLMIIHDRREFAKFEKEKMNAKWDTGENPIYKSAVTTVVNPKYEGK

B3: RY9A2v501 antibody (antibody, V domains shown)
VH: QVQLVQSGAEVKKPGSSVKMSCKASGYTLTTYWMHWVKQRPGQGLEWIGYINPSSGYTEYNQKFKDRVTITADKSTSTAYMELSSLRSEDTAVYYCAIYGDYGDFYFDYWGQGTTVTVSS
VL: DIQMTQSPSSLSASVGDRVTITCKASQSVNTDVAWYQQKPGKAPKLLIYFASNHYTGVPSRFSGSGSGTDFTFTISSLQPEDIATYYCRQDYSSPFTFGGGTKVEIKR
- IC50 (µg/mL), cell adhesion inhibition test, SW480/hα9 cells on nOPN-RAA [3]: 0.054 µg/mL

B4: RY9A2v5(AW)01 antibody (antibody, V domains shown)
VH: B3 VH with D104A, F105W
VL: B3 VL
- IC50 (µg/mL), cell adhesion inhibition test, SW480/hα9 cells on nOPN-RAA [6]: 0.015 µg/mL

B6: RY9A2v5(SW)01 antibody (antibody, V domains shown)
VH: B3 VH with D104S, F105W
VL: B3 VL
- IC50 (µg/mL), cell adhesion inhibition test, SW480/hα9 cells on nOPN-RAA [6]: 0.035 µg/mL

B7: RY9A2v5(AL)01 antibody (antibody, V domains shown)
VH: B3 VH with D104A, F105L
VL: B3 VL
- IC50 (µg/mL), cell adhesion inhibition test, SW480/hα9 cells on nOPN-RAA [6]: 0.032 µg/mL

B8: RY9A2v11(M34L)012 antibody (antibody, human IgG1, kappa, V domains shown)
VH: B3 VH with M34L, K65Q, D66G
VL: B3 VL with K24R
- specific activity (IC50 relative to mouse Y9A2 = 1), cell adhesion inhibition test on nOPN-RAA [7]: 0.23 ratio of IC50 to mouse Y9A2
- specific activity (IC50 relative to mouse Y9A2 = 1), cell adhesion inhibition test on human Tenascin C-RAA [8]: 0.35 ratio of IC50 to mouse Y9A2
- specific activity (IC50 relative to mouse Y9A2 = 1), cell adhesion inhibition test on human VCAM-1 [8]: 0.44 ratio of IC50 to mouse Y9A2
- inhibitory rate (%) of migration of SW480/hα9 cell against nOPN-RAA, antibody at 5 µg/mL [9]: 84%

B12: RY9A2v5(M34I)01 antibody (antibody, V domains shown)
VH: B3 VH with M34I
VL: B3 VL
- IC50 (µg/mL), cell adhesion inhibition test, SW480/hα9 cells on nOPN-RAA [5]: 0.024 µg/mL

B14: RY9A2v5(M34L)01 antibody (antibody, V domains shown)
VH: B3 VH with M34L
VL: B3 VL
- IC50 (µg/mL), cell adhesion inhibition test, SW480/hα9 cells on nOPN-RAA [5]: 0.021 µg/mL

B15: RY9A2v5(IAW)01 antibody (antibody, human IgG1, kappa, V domains shown)
VH: B3 VH with M34I, D104A, F105W
VL: B3 VL
- specific activity (IC50 relative to mouse Y9A2 = 1), cell adhesion inhibition test on nOPN-RAA [7]: 0.29 ratio of IC50 to mouse Y9A2
- specific activity (IC50 relative to mouse Y9A2 = 1), cell adhesion inhibition test on human Tenascin C-RAA [8]: 0.44 ratio of IC50 to mouse Y9A2
- specific activity (IC50 relative to mouse Y9A2 = 1), cell adhesion inhibition test on human VCAM-1 [8]: 1 ratio of IC50 to mouse Y9A2
- inhibitory rate (%) of migration of SW480/hα9 cell against nOPN-RAA, antibody at 5 µg/mL [9]: 109%

Further lines, results first:

- average cell adhesion inhibitory activity IC50, SW480/hα9 cells on human Tenascin C-RAA [1]: 0.041 µg/mL
- average cell adhesion inhibitory activity IC50, SW480/hα9 cells on human VCAM-1/Ig [1]: 0.077 µg/mL
- average of IC50 values, cell adhesion inhibition test, SW480/hα9 cells on nOPN-RAA [1]: 0.039 µg/mL
- IC50 (µg/mL), cell adhesion inhibition test, SW480/hα9 cells on nOPN-RAA [2]: 0.039 µg/mL
- IC50 (µg/mL), cell adhesion inhibition test, SW480/hα9 cells on nOPN-RAA [3]: 0.07 µg/mL
- IC50 (µg/mL), cell adhesion inhibition test, SW480/hα9 cells on nOPN-RAA [4]: 0.025 µg/mL
- IC50 (µg/mL), cell adhesion inhibition test, SW480/hα9 cells on nOPN-RAA [5]: 0.049 µg/mL
- IC50 (µg/mL), cell adhesion inhibition test, SW480/hα9 cells on nOPN-RAA; value in parentheses, measured simultaneously with RY9A2v5(AL)01 [6]: 0.052 µg/mL
- IC50 (µg/mL), cell adhesion inhibition test, SW480/hα9 cells on nOPN-RAA; value in parentheses, measured simultaneously with RY9A2v5(AW)01 [6]: 0.037 µg/mL
- IC50 (µg/mL), cell adhesion inhibition test, SW480/hα9 cells on nOPN-RAA; value in parentheses, measured simultaneously with RY9A2v5(SW)01 [6]: 0.052 µg/mL
- IC50 (µg/mL), cell adhesion inhibition test, SW480/hα9 cells on nOPN-RAA; value in parentheses, measured simultaneously with RY9A2v5(WE)01 [6]: 0.052 µg/mL
- specific activity (IC50 relative to mouse Y9A2 = 1), cell adhesion inhibition test on nOPN-RAA [7]: 1 ratio of IC50 to mouse Y9A2
- specific activity (IC50 relative to mouse Y9A2 = 1), cell adhesion inhibition test on human Tenascin C-RAA [8]: 1 ratio of IC50 to mouse Y9A2
- specific activity (IC50 relative to mouse Y9A2 = 1), cell adhesion inhibition test on human VCAM-1 [8]: 1 ratio of IC50 to mouse Y9A2
- inhibitory rate (%) of migration of SW480/hα9 cell against nOPN-RAA, antibody at 5 µg/mL [9]: 28%
B1: mouse Y9A2 antibody (antibody, V domains shown)
VH: QVQLQQSGAELANPGASVKMSCKASGYTLTTYWMHWVKQRPGQGLEWIGYINPSSGYTEYNQKFKDKATLTADKSSSTAYMQLTSLTSEDSAVYYCAIYGDYGDFYFDYWGQGTTLTVSS
VL: SIVMTQTPKFLLVSAGDRVTMTCKASQSVNTDVAWFQQKPGQSPKLLIYFASNHYTGVPDRFTGSGYGTDFTFTISTVQAEDLAIYFCRQDYSSPFTFGGGTKLEIKR

- IC50 (µg/mL), cell adhesion inhibition test, SW480/hα9 cells on nOPN-RAA [2]: 0.038 µg/mL
B2: chimeric Y9A2 antibody (antibody, V domains shown)
VH: B1 VH
VL: B1 VL

- IC50 (µg/mL), cell adhesion inhibition test, SW480/hα9 cells on nOPN-RAA [6]: 0.022 µg/mL
B5: RY9A2v5(WE)01 antibody (antibody, V domains shown)
VH: B3 VH with D104W, F105E
VL: B3 VL

- IC50 (µg/mL), cell adhesion inhibition test, SW480/hα9 cells on nOPN-RAA [4]: 0.008 µg/mL
B9: RY9A2v11012 antibody (antibody, V domains shown)
VH: B3 VH with K65Q, D66G
VL: B3 VL with K24R

- IC50 (µg/mL), cell adhesion inhibition test, SW480/hα9 cells on nOPN-RAA [3]: 0.058 µg/mL
B10: RY9A2v801 antibody (antibody, V domains shown)
VH: B3 VH with M20V, K38R, R40A, I48M
VL: B3 VL

- IC50 (µg/mL), cell adhesion inhibition test, SW480/hα9 cells on nOPN-RAA [4]: 0.012 µg/mL
B11: RY9A2v11011 antibody (antibody, V domains shown)
VH: B3 VH with K65Q, D66G
VL: B3 VL with K24Q

- specific activity (IC50 relative to mouse Y9A2 = 1), cell adhesion inhibition test on nOPN-RAA [7]: 0.23 ratio of IC50 to mouse Y9A2
- specific activity (IC50 relative to mouse Y9A2 = 1), cell adhesion inhibition test on human Tenascin C-RAA [8]: 0.26 ratio of IC50 to mouse Y9A2
- specific activity (IC50 relative to mouse Y9A2 = 1), cell adhesion inhibition test on human VCAM-1 [8]: 0.95 ratio of IC50 to mouse Y9A2
- inhibitory rate (%) of migration of SW480/hα9 cell against nOPN-RAA, antibody at 5 µg/mL [9]: 86%
B13: RY9A2v12(M34L)012 antibody (antibody, human IgG1, kappa, V domains shown)
VH: B3 VH with M20V, M34L, K38R, R40A, I48M, K65Q, D66G
VL: B3 VL with K24R
